Article PMC3906830 (The Febs Journal, 2013)

Biological target: T1, mature myostatin (human, UniProt O14793 267-375)
T1 sequence (looked up): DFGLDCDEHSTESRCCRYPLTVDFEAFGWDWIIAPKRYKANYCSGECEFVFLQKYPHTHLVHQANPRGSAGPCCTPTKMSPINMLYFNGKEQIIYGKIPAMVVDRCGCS
Assay: SPR

- Kd: 3.7 µM
B1: N-terminal region of myostatin prodomain (PRO43-115) (domain or fragment, human, UniProt O14793 43-115, looked up)
chain: TWRQNTKSSRIEAIKIQILSKLRLETAPNISKDVIRQLLPKAPPLRELIDQYDVQRDDSSDGSLEDDDYHATT
